Assay: yeast display, Sf9 membrane polyspecificity reagent, FACS + sequencing; frameworks hold sequencing errors
Outline: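 Galactose-induced (36–48 hours) yeast carrying a synthetic nanobody display library were exposed to 10% biotinylated, detergent-solubilized Sf9 membrane reagent at 4 °C for 1 hour. FACS followed streptavidin microbead enrichment, using low and high (top ~1%) gates for expression (anti-HA) and reagent binding (streptavidin). Colony PCR, MiSeq 2 × 250 sequencing and CDR-length filtering followed. Labels for polyreactivity reflect the gate of origin.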

Row | Sequence | polyreactivity (PSR sort gate)
1 | QVQLVESGGGLVQAGGSLRLSCAASGRIFKYYVMGWYRQPPGKERELVAGISSSGGSTYYADSVKGRFTISRDNAKNTVYLQMNSLKPEDTAVYYCAADYTFAYYNVKMDYWGQGTQVTVSS | low polyreactivity
2 | QVQLVESGGGLVQAGGSLRLSCAASGSIISYYAMGWYRQAPGKERELVATITSGGITYYADSVKGRFTISRDNAKNTVYLQMNSLKPEDTAVYYCNARYPHGYSSYYRFGYWGQGTQVTVSS | high polyreactivity
3 | QVKLVESAGGLVQAGGSLRLSCPASGRTFYRYVMGWSRQEPGKERELVAAITPGGSTYADSVKGRFTISRDNAKNTVYLQMNSLKPEDTAVYYCNKRKASSSGYNYWGQGTQVTVSS | low polyreactivity
4 | QVQLVESGGGLVQAGGSHRLSCAPSGFTLADYTMAWYRPAPGKERELVAAITSGASTYYADSVKGRFTISRDNAKNTVYLQMNSLKPEDTAGYYCAARNDYYNTFSGYDYWGQGTQVTVSS | low polyreactivity
5 | QVQLVESGGGLVQAGGSLRLSCAASGSTFSRYAMGWYRQAPGKERELVAAITSNGGRTYYADSVKGRFTISRDNAKNTVYLQMNSLKPEDTAVYYCAAVYYTEYYWGQGTQVTVSS | high polyreactivity
6 | QVQLVESGGGLVQAGGRLRLSCAASGSTFHHNVMGWYRQAPGKEWELVAAITSSGGSTYYADSVKGRFTISRDNAKNTVYLQMNSLKPEDTAVYYCAKDKLIFYRVGSDYWGQGTQVNVSS | low polyreactivity
7 | QVQLVESGGGLVHAGGSLRLSCAASGSTFPAYAMGWYRQAPGKERELVAGITRGGSTYYADSVKGRFTISRDNAKNTVYLQMNSLKPEDSAVYYCAAYVLPWRGRGQTEYGYWGQGTQVTVSS | low polyreactivity
8 | QVQLVESGGGLVQAGGSLRLSCAASGFIYGFYVMGWYRQAPGKERELVAAITTSGDSTYYADSVKGRFTISRDNAKNTVFLQMNSLKPEDTAVYYCAADNVHSEYEYWGQGTQVTVSS | high polyreactivity
9 | QVQLVESGGGLVQAGGSLRLSCAASGSTFRGYAMGWYRQAPGKERELVAAISRSGGSTYYADSVKGRFTISRDNAKNTVYLQMNSLKPEDTAVYYCNARSSKRSSRGYDYWGQGTQVTVSS | high polyreactivity
10 | QVQLVESWGGLVQAGGSLRLSCAASGINFQNYDMGWYRQAPGKERELVAAINGSGGSTYYADSVKGRFTISRDNANNTVYLQMNSLKPEDTAVYYCNAVWEYYGKSDYWGQGTQVTVSS | low polyreactivity
11 | QVQLEESGGGLVQAGGSLRISCAASGKIFSYNAMGWYRHAPGKERELVAAISRSGGSTYYADSVKGRFTISRDNAKNTVYLQMNSLKPEDTAVYYCAADWRGRKYDYWGQVTQVTVSS | high polyreactivity
12 | QVQLVESGGGLVQAGGSLRLSCAASGSTFLYYAMGWYRQAPGKESELVAAIDSGGSTYYADSVKGRFTISRDNAKNTVYLQMNSLKPEDTAVYYCNADPPPEYYPDKDNYWGQGTQVTVSS | low polyreactivity
13 | QVQLVESGGGLVQAGGSLRLSCAASGSISGYNAMGWYRQAPGKERELVAVITTDGSTNYADSVKGRFTISRDNAKNTVYLQMNSLKPEDTAVYYCNTDDGWRLLWEYDYWGQGTQVTVSS | low polyreactivity
14 | QVQLVESGGGLVQAGGSLRLSCAASGSIYSINAMGWYRQAPGKERELVAAISWSGGSTYYADSVKGRFTISRDNAKNTVYLQMNSLKPEDTAVYYCNAEEDEYGELDYWGQGTQVTVSS | low polyreactivity
15 | QVQLVESGGGLVQAGGSLRLSCAASGRIFGPYAMGWYRQAPGKERELGASISGGGSTNYADSVKGRFTISRDNAKNTVYLPMNSVKPEDTAVYYCAADVYYQYWGWWPYDYWGQGTQVTVSS | low polyreactivity
16 | QVQLQESGGGLVQAGGSLRLSCAASGSISRYYDMGWYRQAPGKEREFVAGISGGAITYYADSVKGRFTISRDNAKNTVYLQMNSLKPEDTAVYYCAADPGVYQYHSYWGQGTQVTVSS | low polyreactivity
17 | QVQLVESGGRLVQAGGSLRLSCAASGRTFHRYAMGWYRQAPGKERELVAAITSSGGSTNYADSVKGRFTISRDNAKNTVYLQMNSLKPEDTAVYYCATVRYRYTSHPWSRGFDYWGQGTQVTVSS | low polyreactivity
18 | QVQLVESGGGLVQAGGSLRLSCAASGRTFRYYAMGWYRQAPGKERELVATISKSGGSTYYADSVKGRFTISRDNAKNTVYLQMNSLKPVDTAVYYCAAVGPYRWYDYWGQGTQVTVSS | high polyreactivity
19 | QVQLVESGGGLVQAGGSLRLSCAASGFIFYRYAMGCYRQAPGTEREFVAAISFRDGITYADSVKGRFTISRDNAKNTVYLQMNTLKPEDTAVYYCNAALSQLRRGGLAMDYWGQGTQVTVSS | low polyreactivity
20 | QVQLVESGGGLVQAGGSLRLSCAASGSTFVDNAMGWYRQAPGKERELVADISSGGSTYYADSVKGRFTISRDNAKNTVYLQMNSLKPEDTAVYYCNAESFYWWHSYDYWGQGTQVTVSS | high polyreactivity
21 | QVQLVESGGGLVQAGGSLRLSCAASGRISVTYAMGWYRQAPGKERELVAAINTSGGTTYYADSVKGRFTISRDNAKNTVYLQMNSLKPEDTAVYYCNAVFYGGVGDNDYWGQGTQVTVSS | high polyreactivity
22 | QVQLVESGGVLVQAGGSLRLSCAASGSTFFVYAMGWYRQAPGKERELVAAISSRGSTYYADSVKGRFTISRDNAKNTVYLQMNSLKPEDTAVYYCAAEYTVSYLRMDYWGQGTQVTVSS | low polyreactivity

Row | Sequence | polyreactivity (PSR sort gate)
23 | QVQLVESGGGLVQAGGSLRLSCAASGFISYFYTMGWYRPAPGKERELVAAISNTGDRTYYADSVKGRFTISRDNAKNTVYLQMNSLKPEDTAVYYCNAVVRGTYWQSFDYWGQGTQVTVSS | high polyreactivity
24 | QVQLAESGGGLVQAGGSLRLSCAASGLTFNAYAMGWYRQAPGKERELVADITTSDGSTFYADSVKGRFTISRDNAKNTVYLQMNRLKPEDTAVYYCNADAYGWYSGPWFKWLLWYDYWGQGTQVTVSS | low polyreactivity
25 | QVQLVESGGGLVQAGGSLRLSCADSARILYHYAIGWYRQAHGKETELVAAITRGGGTNYADSVKGRFTISRDNAKNTVYLQMNSLKPEDTAVYYCNADRFIVTRSRRGDYWGQGTQVTVSS | low polyreactivity
26 | QVQLVESGGGLVQAGGSLRLSCAASGSTFTVNAMGWYRQAPGKERELVAAINGSGDITYYADSVTGRFTISRDNAKNTVYLQMNSLKPEDTAVYYCAADQGVPSTYDYWGQGTQVTVSS | low polyreactivity
27 | QVQLVESGGGLVQAGGSLRLSCAASGSTSYPYAMGWYIQAPGQERELVATINYSGARTYYADSVKGRFTISRDNAKNTVYFQMNSLKPEDTAVYYCAATVYWRLEHDYWGQGTQVTVSS | low polyreactivity
28 | QVQLLESGGGLVQAGGSLRLSFAASGSTSRKYAMGLYRQAPGKERVLVAGITKGGGGTYYADSVKGRFTISRDNAKNTVYLLMNSLKPEDTAVYYCAKYYGSGYYIYDYWGLGTQVTVSS | low polyreactivity
29 | QVQLGESGGGLVQAGGSLRLSFAASGRISKRNDRGWSRQAPGKERELVAGITSTGSTSYAHSVKGRFTISRDNAKKTVYLQMNSLKPEDTAVYYCAARGQATYNWGQGTQVTVSS | high polyreactivity
30 | QVQLVESGGGLVQAGGSLRLICAASGRIFTYNAMGWYRQAPGKERELVARITSGGNTNYADSVKGRFTISRDNAKNTVYLQMNSLKPEDTAVYYCATGLFWFTNRYGSWGQGTQVTVSS | low polyreactivity
31 | QVQLVESGGGLVQAGGSLRLSCAASGRTIPFNAMGWYRQAPGKERELVAAISSSAGRTYYADSVKGRFTISRDNAKNTVYLQMNSLKPEDTAVYYCAARLYGRYRYDYWGHGTQVTVSS | low polyreactivity
32 | QVQLVESGGGLVQAGGSLRLSSAASGIIFRGYVMGWYRQAPGKERELVAASTWSGGSTYYADSVKGRFTISRDNAKNTVYLQMNSLKPEDTAVYYCNAVRVRVTSHRIRQLDYGYWGQGTQVTVSS | low polyreactivity
33 | QVQLVESGGGLVQAGASLRLSCAASGNILRGYAMRWYRQAPGKERELVAAINRGGGSTYYADSVKVRFTISRDNAKNTVYLQMNSLKPEDTAVYYCAARYPHRGYTFDYLGQGTQVTVSS | low polyreactivity
34 | QVQLVETGGVLVQAGGSLRLSCAASGRTFVYNAMGWYRHAPGKEREFVAAIDGGTGSTYYADSVKGRFTISRDNAKNTVYLQMNSLKPEDTAVYYCAVETYGGGYPVTYDYWGQGTQVTVSS | low polyreactivity
35 | QVQLVESGGGLVQAGGSLRLSCAASGSIFFSNAMGWYRQAPGKERELVAVITYSGGGTYYADSVKGRFTISRDNAKNTVYLQMNSLKPEDTAVYYCNTDLGPDGISWHWYAYDYWGQGTQVTVSS | low polyreactivity
36 | QVQLVESGGGLVQAGGSLRLSCAASGSTLVGNAMGWYRQAPGKEMELVAVISYRGGSTYYADSVKGRFTISRDNAKNTVYLQMNSLKPEDTAVYDCAARYYRNPVFVIMDYWGQGTQVTVSS | high polyreactivity
37 | QVQLVESGGGLVQAGGSLRLSCAASGIIFYEYTMGWYRQAPGKERELVARISLRGGNTYYADSVKGRFTISRDNAKNTVYLQMNSLKPEDTAVYYCNADLYRQYASRYHYWGQGTQVTVSS | high polyreactivity
38 | QVQLVESGGGLVQAGGTLRLSCAASGSTIKPYAMGWNRQAPGKERELVAVIRWRGGRTYYADSVKGRFTISRDNAKNTAYFQINSQNPADTAVYYCAAGGSQAAGGYGYYGYDYWGQGTQVTVSA | low polyreactivity
39 | QVQLVESGGGLVQAGGSLRLSCAASGRTFPYNAMGWSRQAPGKERELVAVISSGGGRTYYADSVKGRFTISRDNAKNTVYLQMNSLKPEDTAVYYCNKGGYAIRYDYYWGQGTQVTVSS | high polyreactivity
40 | QVQLVESGGGLVQAGGSLRLICAASGNIFAVYAMGWYRQAPGKERELVAAITTGTNTYADSVKGRFTISRDNAKNNVYLQMNSLKPEDTAVYFCAARYYRPLDYWGQGTQVTVSS | low polyreactivity
41 | QFQLVESGGGLDQAGGSLRLSCAASGRIFYRNCMGWYSQAPWKDRELVASIRRGGSTNYADSVKGRFTISRDNAKYTVYLQMNSVKPEDTAVYYCAARRFYPYISSGPYYYWGQGTQVTVSS | high polyreactivity
42 | QVQLVESGGGLVQAGGSLRLSCAASGFTIPTYAMVWYRQAPGKERELVAAITRGGSTYYADSVKGRFTISRDNAKYTVYLQMNSLKPEDTAVYYCAADDPWYEEDYWGQGTQVTVSS | low polyreactivity
43 | QVQLVESGGGLVQAGGSLRLSCAASGFIFDSNAMGWYRQAPGKERELVAAISRSGASTYYADSVKGRFTISRDNAKNTVYLQMNSLKPEDTSVYYCAASVRKIHDRFYYWGQGTQVTVSS | high polyreactivity

Reference: the nanobody polyreactivity screen of Harvey et al. (2022)
